Source: patent publication US20220010021A1 (Sanofi, published 2022)

T1: human beta-Klotho (KLB) (human, UniProt Q86Z14 53-997)
T1 construct: Bought soluble protein; also called human KLB; ß-Klotho
T1 sequence (looked up): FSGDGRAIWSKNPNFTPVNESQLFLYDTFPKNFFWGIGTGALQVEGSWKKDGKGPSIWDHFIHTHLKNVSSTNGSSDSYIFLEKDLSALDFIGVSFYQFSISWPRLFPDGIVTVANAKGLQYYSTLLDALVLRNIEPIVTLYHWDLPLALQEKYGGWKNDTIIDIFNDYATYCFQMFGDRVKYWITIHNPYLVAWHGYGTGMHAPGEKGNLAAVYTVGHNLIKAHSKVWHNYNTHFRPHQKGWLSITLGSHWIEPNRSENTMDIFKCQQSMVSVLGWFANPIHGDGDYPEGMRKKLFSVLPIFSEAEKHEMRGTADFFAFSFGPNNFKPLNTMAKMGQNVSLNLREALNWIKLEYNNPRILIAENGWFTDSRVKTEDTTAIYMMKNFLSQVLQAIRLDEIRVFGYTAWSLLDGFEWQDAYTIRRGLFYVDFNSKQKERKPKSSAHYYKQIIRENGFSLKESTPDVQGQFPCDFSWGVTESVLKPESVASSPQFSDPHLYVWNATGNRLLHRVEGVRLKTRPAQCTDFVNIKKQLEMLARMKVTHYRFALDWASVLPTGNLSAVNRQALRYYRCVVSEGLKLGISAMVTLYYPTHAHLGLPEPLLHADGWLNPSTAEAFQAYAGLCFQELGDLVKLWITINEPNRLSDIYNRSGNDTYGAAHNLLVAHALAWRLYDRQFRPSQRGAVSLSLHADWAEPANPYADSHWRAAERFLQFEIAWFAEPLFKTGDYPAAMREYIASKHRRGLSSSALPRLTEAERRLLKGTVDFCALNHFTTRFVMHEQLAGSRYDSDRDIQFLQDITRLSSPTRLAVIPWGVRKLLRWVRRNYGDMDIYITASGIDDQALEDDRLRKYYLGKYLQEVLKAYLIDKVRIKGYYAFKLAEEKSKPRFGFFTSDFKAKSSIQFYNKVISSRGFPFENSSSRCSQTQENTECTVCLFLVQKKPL

T2: human beta-Klotho (KLB) (human, UniProt Q86Z14 53-997)
T2 construct: Bought protein; also called human KLB; β-Klotho
T2 sequence (looked up): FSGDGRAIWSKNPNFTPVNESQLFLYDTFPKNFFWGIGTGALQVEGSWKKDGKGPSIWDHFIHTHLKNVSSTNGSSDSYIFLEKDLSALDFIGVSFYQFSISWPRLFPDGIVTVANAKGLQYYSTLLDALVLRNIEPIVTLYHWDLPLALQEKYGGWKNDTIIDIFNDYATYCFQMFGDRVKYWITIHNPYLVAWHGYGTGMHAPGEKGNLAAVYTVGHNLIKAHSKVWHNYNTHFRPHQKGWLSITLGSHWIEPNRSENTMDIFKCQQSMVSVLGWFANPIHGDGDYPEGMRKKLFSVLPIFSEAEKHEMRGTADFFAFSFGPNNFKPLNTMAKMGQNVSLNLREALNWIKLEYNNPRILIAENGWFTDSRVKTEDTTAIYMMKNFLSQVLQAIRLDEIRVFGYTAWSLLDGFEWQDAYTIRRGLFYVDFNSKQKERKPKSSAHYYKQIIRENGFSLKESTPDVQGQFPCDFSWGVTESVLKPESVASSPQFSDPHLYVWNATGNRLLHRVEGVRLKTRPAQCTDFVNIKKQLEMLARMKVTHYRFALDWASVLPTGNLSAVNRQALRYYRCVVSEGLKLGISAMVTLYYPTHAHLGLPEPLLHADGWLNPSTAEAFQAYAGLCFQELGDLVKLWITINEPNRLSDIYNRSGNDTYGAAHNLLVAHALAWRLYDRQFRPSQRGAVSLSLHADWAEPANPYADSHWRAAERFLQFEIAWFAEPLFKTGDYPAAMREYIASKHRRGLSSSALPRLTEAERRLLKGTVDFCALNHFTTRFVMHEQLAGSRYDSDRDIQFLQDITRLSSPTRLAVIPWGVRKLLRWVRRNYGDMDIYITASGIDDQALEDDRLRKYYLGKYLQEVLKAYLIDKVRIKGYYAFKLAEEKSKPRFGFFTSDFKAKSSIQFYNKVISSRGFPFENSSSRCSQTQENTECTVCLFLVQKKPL


Tests used:
[1] = target: cell surface receptor composed of the tyrosine kinase receptor FGFR1c and co-receptor beta-Klotho (KLB) (human, UniProt P11362 22-822; Q86Z14 1-1044); assay: cell-based or functional assay
Sequence of cell surface receptor composed of the tyrosine kinase receptor FGFR1c and co-receptor beta-Klotho (KLB) (P11362 22-822, chain 1 of 2): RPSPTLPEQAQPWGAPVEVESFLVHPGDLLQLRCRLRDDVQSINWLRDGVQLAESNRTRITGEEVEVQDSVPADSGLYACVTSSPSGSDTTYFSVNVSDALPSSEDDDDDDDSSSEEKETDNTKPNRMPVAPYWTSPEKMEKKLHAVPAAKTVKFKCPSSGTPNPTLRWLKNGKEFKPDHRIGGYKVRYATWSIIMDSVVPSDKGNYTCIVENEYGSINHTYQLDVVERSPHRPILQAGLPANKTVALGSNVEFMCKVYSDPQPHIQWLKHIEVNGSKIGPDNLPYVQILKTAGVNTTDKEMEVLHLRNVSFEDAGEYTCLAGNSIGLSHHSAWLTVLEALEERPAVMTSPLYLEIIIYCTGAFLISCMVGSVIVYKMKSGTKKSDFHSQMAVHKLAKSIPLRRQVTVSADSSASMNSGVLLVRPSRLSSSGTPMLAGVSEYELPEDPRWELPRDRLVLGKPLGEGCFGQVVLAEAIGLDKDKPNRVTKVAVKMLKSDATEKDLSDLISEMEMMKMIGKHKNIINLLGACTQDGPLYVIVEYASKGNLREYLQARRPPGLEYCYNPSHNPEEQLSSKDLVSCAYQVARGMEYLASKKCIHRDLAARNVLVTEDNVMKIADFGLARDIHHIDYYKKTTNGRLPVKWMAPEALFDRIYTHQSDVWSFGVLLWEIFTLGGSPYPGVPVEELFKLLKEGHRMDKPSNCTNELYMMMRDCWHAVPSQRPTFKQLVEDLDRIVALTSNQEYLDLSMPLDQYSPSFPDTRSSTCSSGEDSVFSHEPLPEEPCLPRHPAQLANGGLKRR
Sequence of cell surface receptor composed of the tyrosine kinase receptor FGFR1c and co-receptor beta-Klotho (KLB) (Q86Z14 whole entry, chain 2 of 2): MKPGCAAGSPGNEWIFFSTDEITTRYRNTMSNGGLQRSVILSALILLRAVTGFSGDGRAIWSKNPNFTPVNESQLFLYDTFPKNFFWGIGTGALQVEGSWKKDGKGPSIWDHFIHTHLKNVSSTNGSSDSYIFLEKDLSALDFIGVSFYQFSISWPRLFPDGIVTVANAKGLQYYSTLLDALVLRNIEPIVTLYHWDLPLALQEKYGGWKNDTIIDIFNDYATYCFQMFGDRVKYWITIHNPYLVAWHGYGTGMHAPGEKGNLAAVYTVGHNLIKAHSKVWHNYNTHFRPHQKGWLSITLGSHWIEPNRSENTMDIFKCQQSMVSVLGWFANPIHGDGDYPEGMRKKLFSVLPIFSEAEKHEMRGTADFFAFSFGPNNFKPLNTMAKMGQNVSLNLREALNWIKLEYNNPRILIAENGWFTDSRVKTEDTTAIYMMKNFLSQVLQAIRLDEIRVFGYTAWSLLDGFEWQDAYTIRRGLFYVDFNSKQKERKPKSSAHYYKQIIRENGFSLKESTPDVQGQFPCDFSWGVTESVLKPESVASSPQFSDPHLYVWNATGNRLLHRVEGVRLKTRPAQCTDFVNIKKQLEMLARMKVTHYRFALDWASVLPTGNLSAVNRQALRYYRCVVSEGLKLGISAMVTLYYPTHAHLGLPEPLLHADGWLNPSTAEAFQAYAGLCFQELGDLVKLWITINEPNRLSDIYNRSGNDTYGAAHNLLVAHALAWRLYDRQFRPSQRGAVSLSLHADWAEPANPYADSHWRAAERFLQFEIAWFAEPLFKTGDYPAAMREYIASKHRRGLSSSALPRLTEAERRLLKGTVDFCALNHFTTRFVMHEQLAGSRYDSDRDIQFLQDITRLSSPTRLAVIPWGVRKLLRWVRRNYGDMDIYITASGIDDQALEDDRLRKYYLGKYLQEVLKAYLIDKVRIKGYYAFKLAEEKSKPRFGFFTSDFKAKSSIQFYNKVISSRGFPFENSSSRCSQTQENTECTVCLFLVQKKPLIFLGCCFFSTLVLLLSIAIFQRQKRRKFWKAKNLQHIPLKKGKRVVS

[2] = target: cell surface receptor composed of FGFR1c and co-receptor beta-Klotho (KLB) (human, UniProt P11362 22-822; Q86Z14 1-1044); assay: cell-based or functional assay
Target sequence in this assay (P11362 22-822, chain 1 of 2): as the sequence (P11362 22-822, chain 1 of 2) above
Target sequence in this assay (Q86Z14 whole entry, chain 2 of 2): as the sequence (Q86Z14 whole entry, chain 2 of 2) above

[3] = target: T1, human beta-Klotho (KLB); assay: BLI off-rate screen, supernatant;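 also: expression supernatants tested at 25 µg/mL, dissociation followed for 1800 s in D-PBS with 0.1% BSA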
[4] = target: cell surface receptor composed of FGFR1c and co-receptor beta-Klotho (KLB) (human, UniProt P11362 22-822; Q86Z14 1-1044); assay: cell-based or functional assay; remark: listed apart in the source
Target sequence in this assay (P11362 22-822, chain 1 of 2): as the sequence (P11362 22-822, chain 1 of 2) above
Target sequence in this assay (Q86Z14 whole entry, chain 2 of 2): as the sequence (Q86Z14 whole entry, chain 2 of 2) above

[5] = target: T2, human beta-Klotho (KLB); assay: BLI off-rate screening (Octet), crude supernatant;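 also: supernatants tested at 25 µg/mL, dissociation from biosensors recorded in D-PBS with 0.1% BSA over 1800 s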
For Mean E max, Luciferase reporter gene assay in this document: reference of the scale not given here.

| Binder | Mean E max, Luciferase gene reporter assay [1] [%] | Mean E max, Luciferase reporter gene assay [2] [%] | Mean EC50, Luciferase reporter gene assay [2] [nM] | koff [3] [s⁻¹] | Mean E max, Luciferase reporter gene assay [4] [%] | Mean EC50, Luciferase reporter gene assay [4] [nM] | koff [5] [s⁻¹] | Mean EC50, Luciferase gene reporter assay [1] [nM] |
| --- | --- | --- | --- | --- | --- | --- | --- | --- |
| 16H7 variant with light chain substitution D95S (antibody, human IgG4 S228P, lambda, V domains shown) VH: not shown VL: SYVLTQPPSVSVAPGQTARITCGGNNIGSESVHWYQQKPGQAPVLVVYDDSDRPSGIPERFSGSNSGNTATLTISRVEAGDEADYYCQVWDGNSSHVVFGGGTKLTVLG | 37 | – | – | – | – | – | – | – |
| 16H7 light chain variant G28A (antibody, human IgG4 S228P, lambda, V domains shown) VH: not shown VL: SYVLTQPPSVSVAPGQTARITCGGNNIASESVHWYQQKPGQAPVLVVYDDSDRPSGIPERFSGSNSGNTATLTISRVEAGDEADYYCQVWDGNSDHVVFGGGTKLTVLG | – | 92 | 0.123 | 3.3e-05 | – | – | – | – |
| 16H7 light chain variant V98C (antibody, IgG4, V domains shown, IgG4 backbone) VH: not shown VL: SYVLTQPPSVSVAPGQTARITCGGNNIGSESVHWYQQKPGQAPVLVVYDDSDRPSGIPERFSGSNSGNTATLTISRVEAGDEADYYCQVWDGNSDHVCFGGGTKLTVLG | – | – | – | – | 100 | 0.105 | 6.4e-05 | – |
| 16H7 light chain variant V97N (antibody, IgG4, V domains shown, IgG4 backbone) VH: not shown VL: SYVLTQPPSVSVAPGQTARITCGGNNIGSESVHWYQQKPGQAPVLVVYDDSDRPSGIPERFSGSNSGNTATLTISRVEAGDEADYYCQVWDGNSDHNVFGGGTKLTVLG | – | – | – | – | 95 | 0.206 | 0.00033 | – |
| 16H7 light chain variant V97T (antibody, IgG4, V domains shown, IgG4 backbone) VH: not shown VL: SYVLTQPPSVSVAPGQTARITCGGNNIGSESVHWYQQKPGQAPVLVVYDDSDRPSGIPERFSGSNSGNTATLTISRVEAGDEADYYCQVWDGNSDHTVFGGGTKLTVLG | – | – | – | – | 99 | 0.142 | 0.0001 | – |
| 16H7 light chain variant V98F (antibody, IgG4, V domains shown, IgG4 backbone) VH: not shown VL: SYVLTQPPSVSVAPGQTARITCGGNNIGSESVHWYQQKPGQAPVLVVYDDSDRPSGIPERFSGSNSGNTATLTISRVEAGDEADYYCQVWDGNSDHVFFGGGTKLTVLG | – | – | – | – | 102 | 0.161 | 1.6e-05 | – |
| 16H7 light chain variant V98S (antibody, IgG4, V domains shown, IgG4 backbone) VH: not shown VL: SYVLTQPPSVSVAPGQTARITCGGNNIGSESVHWYQQKPGQAPVLVVYDDSDRPSGIPERFSGSNSGNTATLTISRVEAGDEADYYCQVWDGNSDHVSFGGGTKLTVLG | – | – | – | – | 107 | 0.094 | 3.9e-05 | – |
| 16H7 light chain variant V98I (antibody, IgG4, V domains shown, IgG4 backbone) VH: not shown VL: SYVLTQPPSVSVAPGQTARITCGGNNIGSESVHWYQQKPGQAPVLVVYDDSDRPSGIPERFSGSNSGNTATLTISRVEAGDEADYYCQVWDGNSDHVIFGGGTKLTVLG | – | – | – | – | 116 | 0.105 | 3.3e-05 | – |
| 16H7 light chain variant V97M (antibody, IgG4, V domains shown, IgG4 backbone) VH: not shown VL: SYVLTQPPSVSVAPGQTARITCGGNNIGSESVHWYQQKPGQAPVLVVYDDSDRPSGIPERFSGSNSGNTATLTISRVEAGDEADYYCQVWDGNSDHMVFGGGTKLTVLG | – | – | – | – | 103 | 0.214 | 3.3e-05 | – |
| 16H7 light chain variant V97I (antibody, IgG4, V domains shown, IgG4 backbone) VH: not shown VL: SYVLTQPPSVSVAPGQTARITCGGNNIGSESVHWYQQKPGQAPVLVVYDDSDRPSGIPERFSGSNSGNTATLTISRVEAGDEADYYCQVWDGNSDHIVFGGGTKLTVLG | – | – | – | – | 110 | 0.12 | 1.7e-05 | – |
| 16H7 variant with light chain substitution S94K (antibody, human IgG4 S228P, lambda, V domains shown) VH: not shown VL: SYVLTQPPSVSVAPGQTARITCGGNNIGSESVHWYQQKPGQAPVLVVYDDSDRPSGIPERFSGSNSGNTATLTISRVEAGDEADYYCQVWDGNKDHVVFGGGTKLTVLG | 104 | – | – | – | – | – | – | 0.185 |
| 16H7 light chain variant V98M (antibody, IgG4, V domains shown, IgG4 backbone) VH: not shown VL: SYVLTQPPSVSVAPGQTARITCGGNNIGSESVHWYQQKPGQAPVLVVYDDSDRPSGIPERFSGSNSGNTATLTISRVEAGDEADYYCQVWDGNSDHVMFGGGTKLTVLG | – | – | – | – | 108 | 0.114 | 7.2e-05 | – |
| 16H7 light chain variant V98P (antibody, IgG4, V domains shown, IgG4 backbone) VH: not shown VL: SYVLTQPPSVSVAPGQTARITCGGNNIGSESVHWYQQKPGQAPVLVVYDDSDRPSGIPERFSGSNSGNTATLTISRVEAGDEADYYCQVWDGNSDHVPFGGGTKLTVLG | – | – | – | – | 89 | 0.131 | 7.3e-05 | – |
| 16H7 light chain variant V98R (antibody, IgG4, V domains shown, IgG4 backbone) VH: not shown VL: SYVLTQPPSVSVAPGQTARITCGGNNIGSESVHWYQQKPGQAPVLVVYDDSDRPSGIPERFSGSNSGNTATLTISRVEAGDEADYYCQVWDGNSDHVRFGGGTKLTVLG | – | – | – | – | 99 | 0.099 | 0.00011 | – |
| 16H7 light chain variant V97F (antibody, IgG4, V domains shown, IgG4 backbone) VH: not shown VL: SYVLTQPPSVSVAPGQTARITCGGNNIGSESVHWYQQKPGQAPVLVVYDDSDRPSGIPERFSGSNSGNTATLTISRVEAGDEADYYCQVWDGNSDHFVFGGGTKLTVLG | – | – | – | – | 45 | 3.02 | 2.1e-05 | – |
| 16H7 light chain variant V98N (antibody, IgG4, V domains shown, IgG4 backbone) VH: not shown VL: SYVLTQPPSVSVAPGQTARITCGGNNIGSESVHWYQQKPGQAPVLVVYDDSDRPSGIPERFSGSNSGNTATLTISRVEAGDEADYYCQVWDGNSDHVNFGGGTKLTVLG | – | – | – | – | 112 | 0.111 | 2.1e-05 | – |
| 16H7 light chain variant E30A (antibody, V domains shown, copies: 2 + 2) VH: not shown VL: SYVLTQPPSVSVAPGQTARITCGGNNIGSASVHWYQQKPGQAPVLVVYDDSDRPSGIPERFSGSNSGNTATLTISRVEAGDEADYYCQVWDGNSDHVVFGGGTKLTVLG | – | 103 | 0.146 | 5.1e-05 | – | – | – | – |
| 16H7 light chain variant V98Q (antibody, IgG4, V domains shown, IgG4 backbone) VH: not shown VL: SYVLTQPPSVSVAPGQTARITCGGNNIGSESVHWYQQKPGQAPVLVVYDDSDRPSGIPERFSGSNSGNTATLTISRVEAGDEADYYCQVWDGNSDHVQFGGGTKLTVLG | – | – | – | – | 111 | 0.121 | 3.7e-05 | – |
| 16H7 light chain variant V97L (antibody, IgG4, V domains shown, IgG4 backbone) VH: not shown VL: SYVLTQPPSVSVAPGQTARITCGGNNIGSESVHWYQQKPGQAPVLVVYDDSDRPSGIPERFSGSNSGNTATLTISRVEAGDEADYYCQVWDGNSDHLVFGGGTKLTVLG | – | – | – | – | 110 | 0.129 | 5.9e-05 | – |
| 16H7 light chain variant E30C (antibody, V domains shown, copies: 2 + 2) VH: not shown VL: SYVLTQPPSVSVAPGQTARITCGGNNIGSCSVHWYQQKPGQAPVLVVYDDSDRPSGIPERFSGSNSGNTATLTISRVEAGDEADYYCQVWDGNSDHVVFGGGTKLTVLG | – | 92 | 0.114 | 9.6e-05 | – | – | – | – |
